Measured values from patent US20210293825.

Biological target: HSP90β/CDC37 heterocomplex of purified recombinant HSP90β and CDC37 (in vitro kinase assay), P08238
Sequence (P08238 whole entry, chain 1 of 2): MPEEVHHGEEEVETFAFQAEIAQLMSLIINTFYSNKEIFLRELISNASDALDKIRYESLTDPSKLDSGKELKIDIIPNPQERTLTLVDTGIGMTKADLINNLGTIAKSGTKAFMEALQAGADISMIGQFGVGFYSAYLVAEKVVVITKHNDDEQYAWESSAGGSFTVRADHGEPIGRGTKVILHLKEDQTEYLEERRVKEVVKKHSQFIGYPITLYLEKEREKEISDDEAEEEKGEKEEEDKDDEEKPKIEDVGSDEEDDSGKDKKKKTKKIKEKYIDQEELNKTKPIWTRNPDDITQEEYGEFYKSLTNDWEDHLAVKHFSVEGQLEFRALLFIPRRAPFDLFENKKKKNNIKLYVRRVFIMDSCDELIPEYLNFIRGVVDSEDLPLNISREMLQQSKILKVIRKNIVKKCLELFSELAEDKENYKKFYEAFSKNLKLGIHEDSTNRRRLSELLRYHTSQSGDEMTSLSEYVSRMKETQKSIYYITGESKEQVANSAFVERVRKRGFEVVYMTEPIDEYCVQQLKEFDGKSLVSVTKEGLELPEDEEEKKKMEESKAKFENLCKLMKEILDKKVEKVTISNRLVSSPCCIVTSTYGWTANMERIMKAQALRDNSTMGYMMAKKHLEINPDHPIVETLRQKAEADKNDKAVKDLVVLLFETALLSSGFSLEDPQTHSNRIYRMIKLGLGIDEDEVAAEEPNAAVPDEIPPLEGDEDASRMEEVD
Sequence (chain, as listed by the source, chain 2 of 2): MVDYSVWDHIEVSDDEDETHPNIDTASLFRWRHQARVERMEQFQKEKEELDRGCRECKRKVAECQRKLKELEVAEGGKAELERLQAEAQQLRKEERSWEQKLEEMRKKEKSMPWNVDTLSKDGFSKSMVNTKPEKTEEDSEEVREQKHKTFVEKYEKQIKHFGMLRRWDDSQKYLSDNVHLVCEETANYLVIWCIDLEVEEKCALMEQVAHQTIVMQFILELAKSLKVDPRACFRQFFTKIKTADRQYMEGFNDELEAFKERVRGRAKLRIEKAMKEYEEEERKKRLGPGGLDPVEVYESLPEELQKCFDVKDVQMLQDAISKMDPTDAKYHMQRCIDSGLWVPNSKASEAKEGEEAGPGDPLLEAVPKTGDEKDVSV

B1: purified recombinant RAF1 (Raf-1, EMD Millipore #17-360) (protein)
chain: SQPKTPVPAQRERAPVSGTQEKNKIRPRGQRDSSYYWEIEASEVMLSTRIGSGSFGTVYKGKWHGDVAVKILKVVDPTPEQFQAFRNEVAVLRKTRHVNILLFMGYMTKDNLAIVTQWCEGSSLYKHLHVQETKFQMFQLIDIARQTAQGMDYLHAKNIIHRDMKSNNIFLHEGLTVKIGDFGLATVKSRWSGSQQVEQPTGSVLWMAPEVIRMQDNNPFSFQSDVYSYGIVLYELMTGELPYSHINNRDQIIFMVGRGYASPDLSKLYKNCPKAMKRLVADCVKKVKEERPLFPQILSSIELLQHSLPKINRSASEPSLHRAAHTEDINACTLTTSPRLPVF
- RAF1 activity (autophosphorylation of RAF1 in an in vitro kinase assay, Western blot): In the absence of CDC37/HSP90β heterocomplex, RAF1 activity was much lower

B2: purified recombinant SGK3 (Thermo Scientific #PV3859) (protein)
chain: MQRDHTMDYKESCPSVSIPSSDEHREKKKRFTVYKVLVSVGRSEWFVFRRYAEFDKLYNTLKKQFPAMALKIPAKRIFGDNFDPDFIKQRRAGLNEFIQNLVRYPELYNHPDVRAFLQMDSPKHQSDPSEDEDERSSQKLHSTSQNINLGPSGNPHAKPTDFDFLKVIGKGSFGKVLLAKRKLDGKFYAVKVLQKKIVLNRKEQKHIMAERNVLLKNVKHPFLVGLHYSFQTTEKLYFVLDFVNGGELFFHLQRERSFPEHRARFYAAEIASALGYLHSIKIVYRDLKPENILLDSVGHVVLTDFGLCKEGIAISDTTTTFCGTPEYLAPEVIRKQPYDNTVDWWCLGAVLYEMLYGLPPFYCRDVAEMYDNILHKPLSLRPGVSLTAWSILEELLEKDRQNRLGAKEDFLEIQNHPFFESLSWADLVQKKIPPPFNPNVAGPDDIRNFDTAFTEETVPYSVCVSSDYSIVNASVLEADDAFVGFSYAPPSEDLFL
- phosphorylation of HSP90β (in vitro kinase assay, Western blot): SGK3 increased phosphorylation of HSP90β, and that phosphorylation was further increased in the presence of KBU2046
